Common to all, as to assay: BLI
For one experiment, the target named is SHH002-hu1-MICA (human) (UniProt Q29983).
Experiment [1] concerns the target rhNKG2D-Fc (human) (UniProt P26718).
Experiment [2] shares this target. The source holds these as a separate data set.

Read-outs that look alike come from different tables or passages of the source.

Chain of UniProt Q29983 (Q29983 whole entry, looked up): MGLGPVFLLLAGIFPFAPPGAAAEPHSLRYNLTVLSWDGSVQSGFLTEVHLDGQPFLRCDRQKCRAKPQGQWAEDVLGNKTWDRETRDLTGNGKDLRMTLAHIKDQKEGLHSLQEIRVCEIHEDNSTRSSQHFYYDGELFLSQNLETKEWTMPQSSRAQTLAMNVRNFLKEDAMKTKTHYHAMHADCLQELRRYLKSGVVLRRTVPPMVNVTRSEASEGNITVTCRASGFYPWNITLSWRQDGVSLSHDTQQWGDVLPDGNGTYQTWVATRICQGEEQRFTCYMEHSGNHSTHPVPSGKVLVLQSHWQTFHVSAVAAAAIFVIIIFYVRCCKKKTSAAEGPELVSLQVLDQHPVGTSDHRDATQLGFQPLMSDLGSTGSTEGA

For orientation: Kd means a measure of binding affinity in units of concentration. High values mean lower affinity, low ones higher affinity. With “rhFzd7-His (from UniProt O75084 33-574) (receptor)”, the Kd in the experiment with SHH002-hu1-MICA (human) is less than 0.001 nM.
As to “rhMICA-His (from UniProt Q29983 24-383) (ligand)”, the dissociation constant (Kd) with rhNKG2D-Fc (human) [1] came out at 12.6 nM; with rhNKG2D-Fc (human) [2], 1.26 nM.
The substance “rhNKG2D-Fc (from UniProt P26718 73-216) (Fc fusion)” returned a Kd in the experiment with SHH002-hu1-MICA (human) of 45.2 nM.

Source of the values: PMC11873350.
